Reference: publication PMC12077085, “Structural elements of cyanobacterial co-factor-independent phosphoglycerate mutase that mediate regulation by PirC” (mBio, 2025)

Columns and labels:
[1] = target: T1, iPGAM (Slr1945), strep-iPGAM, iPGAM-WT (Synechocystis sp. PCC 6803, UniProt P74507); assay: coupled enolase / pyruvate kinase / LDH assay, NADH decrease at […] nm; assay type: biochemical; settings: 50 µM MnCl2; without PirC
T1 construct: gene gpmI; N-terminal strep-tag; expressed in E. coli Lemo21(DE3), Strep-Tactin purified; calculated 60 kDa; monomer by mass photometry

[2] = target: T2, iPGAM (Slr1945), strep-iPGAM, iPGAM-WT (Synechocystis sp. PCC 6803, UniProt P74507, INS467TKKGI/DEL468-484, form not given); assay: as above; assay type: biochemical; settings: 50 µM MnCl2; without PirC
T2 construct: gene gpmI; N-terminal strep-tag; expressed in E. coli Lemo21(DE3), Strep-Tactin purified; calculated 60 kDa; monomer by mass photometry

[3] = target: strep-tagged iPGAM (2,3-bisphosphoglycerate-independent phosphoglycerate mutase, Slr1945) of Synechocystis sp. PCC 6803, wild type (Synechocystis sp. PCC 6803) (UniProt P74507)
[4] = target: strep-tagged iPGAM-Δloop (Synechocystis iPGAM with the loop replaced by TKKGI) (Synechocystis sp. PCC 6803) (UniProt P74507)
[5] = target: strep-tagged iPGAM-ΔloopΔCT (Synechocystis iPGAM with the loop replaced by TKKGI and the C-terminal segment deleted) (Synechocystis sp. PCC 6803) (UniProt P74507)
[6] = target: strep-tagged iPGAM-ΔCT (Synechocystis iPGAM with the C-terminal segment deleted) (Synechocystis sp. PCC 6803) (UniProt P74507)
[7] = target: strep-tagged PirC (Sll0944, PII-interacting regulator of carbon metabolism) (Synechocystis sp. PCC 6803) (UniProt P77971); assay: mass photometry; Refeyn OneMP; strep-iPGAM and strep-PirC alone (iPGAM 10 nM) and mixed at an iPGAM-PirC ratio of 1:3
[8] = target: strep-tagged iPGAM (2,3-bisphosphoglycerate-independent phosphoglycerate mutase, Slr1945) of Synechocystis sp. PCC 6803, wild type (Synechocystis sp. PCC 6803) (UniProt P74507); assay: as above
[9] = target: His-tagged PirC (Sll0944, PII-interacting regulator of carbon metabolism) (Synechocystis sp. PCC 6803) (UniProt P77971); assay: BLI; Octet K2; His-tagged PirC immobilised on a Ni2+-NTA sensor, strep-iPGAM variants as analytes in various concentrations
His-tagged PirC (Sll0944, PII-interacting regulator of carbon metabolism) (Synechocystis sp. PCC 6803), sequence (P77971 whole entry): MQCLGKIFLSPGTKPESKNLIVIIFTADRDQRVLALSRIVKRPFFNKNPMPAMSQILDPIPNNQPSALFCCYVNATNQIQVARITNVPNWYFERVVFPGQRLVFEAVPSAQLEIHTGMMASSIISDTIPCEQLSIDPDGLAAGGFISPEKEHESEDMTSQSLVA

[10] = substrate: O=C(O)[C@H](O)COP(=O)(O)O; assay: purified protein; assay type: biochemical, Synechocystis sp. PCC 6803; settings: 50 µM MnCl2; without PirC

`O=C(O)[C@H](O)COP(=O)(O)O` [3-PGA] was tested, and the Km [1] was 242 ± 19 µM and the Km [2] was 547 ± 59 µM.

“His-tagged PirC (Sll0944, PII-interacting regulator of carbon metabolism) (from UniProt P77971 1-164) (natural protein)” gave an IC50 of PirC on iPGAM activity, coupled enzyme assay at 0.75 mM 3-PGA (50 to 1,600 nM PirC) [3] of 120 nM, an IC50 of PirC on iPGAM activity, coupled enzyme assay at 0.75 mM 3-PGA (50 to 1,600 nM PirC) [4] of 217 nM and an IC50 of PirC on iPGAM activity, coupled enzyme assay at 0.75 mM 3-PGA (50 to 1,600 nM PirC) [5] of 164 nM. For the same molecule, the IC50 of PirC on iPGAM activity, coupled enzyme assay at 0.75 mM 3-PGA (50 to 1,600 nM PirC) [6] was 1070 nM.

In the case of “strep-tagged PirC (Sll0944, PII-interacting regulator of carbon metabolism) (from UniProt P77971 1-164) (natural protein)”, the stoichiometry N [7] is reported as 6 and the stoichiometry N (PirC monomers per iPGAM) [8] is reported as 3.

In the case of “strep-tagged iPGAM-ΔCT (Synechocystis iPGAM with the C-terminal segment deleted) (from UniProt P74507 1-532) (enzyme)”, the Kd [9] is reported as 114 nM.

Work on “strep-tagged iPGAM-Δloop (Synechocystis iPGAM with the loop replaced by TKKGI) (from UniProt P74507 1-532) (enzyme)” yielded a Kd [9] of 203 nM.

Work on “strep-tagged iPGAM-ΔloopΔCT (Synechocystis iPGAM with the loop replaced by TKKGI and the C-terminal segment deleted) (from UniProt P74507 1-532) (enzyme)” yielded a Kd [9] of 233 nM.

B1: strep-tagged iPGAM (2,3-bisphosphoglycerate-independent phosphoglycerate mutase, Slr1945) of Synechocystis sp. PCC 6803, wild type (enzyme)
chain: MAEAPIAPVVLVILDGWGYRPDTRANAIAQANTPIMDSLIAAYPNTLVNTSGKDVGLPKGQMGNSEVGHLNLGAGRVVPQELVRISDAIEDGTFFDNQALIEVCQRVRDRRGKLHLIGLCSDGGVHSHIDHLLGLIDLAKLQGISQLCIHAITDGRDTPTNEGAHFVQQIQAHLEKIGLGRIVSVSGRYYALDRDRRWDRVEKAYRVMTEDGVGDGRSAAQVIKDYYASDITDEFIPPTRIGAGAIASGDGVIFYNFRPDRARQLCYALVNPSFDGFPRERIQPLDFVTFTQYDPALPVVVAFEPQNLNNILGEIISRQGMKQFRTAETEKYPHVTYFFNGGLEQPFAGEDRELIQSPMVSTYDKAPQMSAKAVTDAVCRAMEKGIYSLVVVNYANPDMVGHTGKLKEAIQAIETVDLNLGRLLASAAKVGGTVLITADHGNAEYMSDESGNPWTAHTTNPVPFILVEGEGRKIPGHGGEVKLREGGKLADIAPTILDILQLPVPAEMTGKTLIDQPLVEIKANRTPVNLSR
With B1 the Kd [9] was 378 nM.

B2: iPGAM (Slr1945), strep-iPGAM, iPGAM-WT (Synechocystis sp. PCC 6803 substr. Kazusa) (protein)
chain: MAEAPIAPVVLVILDGWGYRPDTRANAIAQANTPIMDSLIAAYPNTLVNTSGKDVGLPKGQMGNSEVGHLNLGAGRVVPQELVRISDAIEDGTFFDNQALIEVCQRVRDRRGKLHLIGLCSDGGVHSHIDHLLGLIDLAKLQGISQLCIHAITDGRDTPTNEGAHFVQQIQAHLEKIGLGRIVSVSGRYYALDRDRRWDRVEKAYRVMTEDGVGDGRSAAQVIKDYYASDITDEFIPPTRIGAGAIASGDGVIFYNFRPDRARQLCYALVNPSFDGFPRERIQPLDFVTFTQYDPALPVVVAFEPQNLNNILGEIISRQGMKQFRTAETEKYPHVTYFFNGGLEQPFAGEDRELIQSPMVSTYDKAPQMSAKAVTDAVCRAMEKGIYSLVVVNYANPDMVGHTGKLKEAIQAIETVDLNLGRLLASAAKVGGTVLITADHGNAEYMSDESGNPWTAHTTNPVPFILVEGEGRKIPGHGGEVKLREGGKLADIAPTILDILQLPVPAEMTGKTLIDQPLVEIKANRTPVNLSR
notes: N-terminal strep-tag; expressed in E. coli Lemo21(DE3), Strep-Tactin purified; calculated 60 kDa; monomer by mass photometry
B2 gave a Km [10] of 0.265 ± 0.013 mM, a Vmax [10] of 18.6 µmol/min/mg and a kcat [10] of 18.6 ± 0.3 s⁻¹. It also gave a kcat/Km [10] of 70200 ± 3590 M⁻¹ s⁻¹.

B3: iPGAM (Slr1945), strep-iPGAM, iPGAM-WT (Synechocystis sp. PCC 6803 substr. Kazusa; DEL468-484/INS467TKKGI) (protein)
chain: MAEAPIAPVVLVILDGWGYRPDTRANAIAQANTPIMDSLIAAYPNTLVNTSGKDVGLPKGQMGNSEVGHLNLGAGRVVPQELVRISDAIEDGTFFDNQALIEVCQRVRDRRGKLHLIGLCSDGGVHSHIDHLLGLIDLAKLQGISQLCIHAITDGRDTPTNEGAHFVQQIQAHLEKIGLGRIVSVSGRYYALDRDRRWDRVEKAYRVMTEDGVGDGRSAAQVIKDYYASDITDEFIPPTRIGAGAIASGDGVIFYNFRPDRARQLCYALVNPSFDGFPRERIQPLDFVTFTQYDPALPVVVAFEPQNLNNILGEIISRQGMKQFRTAETEKYPHVTYFFNGGLEQPFAGEDRELIQSPMVSTYDKAPQMSAKAVTDAVCRAMEKGIYSLVVVNYANPDMVGHTGKLKEAIQAIETVDLNLGRLLASAAKVGGTVLITADHGNAEYMSDESGNPWTAHTTNPVPFILVTKKGIEGGKLADIAPTILDILQLPVPAEMTGKTLIDQPLVEIKANRTPVNLSR
notes: as for B2
B3 showed a Km [10] of 1.087 ± 0.141 mM, a Vmax [10] of 6.86 µmol/min/mg and a kcat [10] of 6.7 ± 0.4 s⁻¹. For the same molecule, the kcat/Km [10] was 6190 ± 874 M⁻¹ s⁻¹.
